Data reported in patent publication US20220154138A1, “METHOD OF PRODUCING PLACENTA-LIKE ORGANOID, PLACENTA-LIKE ORGANOID, AND PRODUCTION OR TEST KIT” (FUJIFILM Corporation, priority 2020, published 2022).

Tests used:
iPS cells [1] = test: Two-dimensional adhesion culture of iPS cells with BMP4, hCG in culture supernatant by GONASTICK W; type: cell-based, human; details: 2D adhesion culture, StemFit, BMP4 present
Procedure: In GONASTICK W, about 0.5 to 1 mL of the culture supernatant was sampled, and a test strip was soaked therein. After the soaking was completed, the determination surface of the test strip was placed to face upward and allowed to stand until the culture supernatant passed through the determination window and reached the reaction end window. […] The detection sensitivity of the present examination reagent is 25 IU/L, and a blue control line corresponding to an hCG concentration of 1,000 IU/L is printed in advance on the determination window, which can be visually compared with the determination line.
In a case where a line equal to or more blue-colored than the control line was visually observed on the determination line, it was judged as positive (+).
In a case where the line was not visually observed on the determination line, it was determined to be negative (−).
In a case where a line that was less blue-colored than the control line but was visible was visually observed on the determination line, it was determined to be (+/−).
Laminin (iMatrix-511: Nippi. Inc.) was diluted with Dulbecco's phosphate buffered saline (DPBS), 1 mL thereof per well was dispensed into a 6-well plate (Falcon TC: #353046), and the plate was allowed to stand in a 37° C. incubator for 1 hour to be coated with laminin. 2 mL of an iPS cell medium (StemFit (registered trade name) AK02N: Ajinomoto Co., Inc.) to which 2 μL of a solution containing 50 μg/mL BMP4 (R&D Systems Inc.) had been added was dispensed into the laminin-coated plate, and iPS cells (4×10^4 cells/well) were seeded therein. The culture was continued while appropriately changing the medium, and the hCG contained in the culture supernatant was detected using a drug for in vitro diagnosis for the pregnancy test, GONASTICK W (MOCHIDA PHARMACEUTICAL Co., Ltd.), whereby the differentiation induction into a placental tissue was checked. As a negative control, the same culture was carried out using a medium to which BMP4 had not been added. The hCG was started to be produced on the 7th day of culture; however, the hCG production stopped around the 18th day (Table 1).

iPS cells [2] = test: Two-dimensional adhesion culture with BMP4, hCG quantified by i-STAT cartridge Total β-hCG; type: cell-based, human
Procedure: In the i-STAT cartridge Total β-hCG, about 17 μL of the culture supernatant was sampled, injected into the reagent cartridge, and inserted into the single-purpose analyzer.
Two-dimensional adhesion culture was carried out by the following method. Laminin (iMatrix-511: Nippi. Inc.) was diluted with Dulbecco's phosphate buffered saline (DPBS), 1 mL thereof per well was dispensed into a 6-well plate (Falcon TC: #353046), and the plate was allowed to stand in a 37° C. incubator for 1 hour to be coated with laminin. 2 mL of an iPS cell medium (StemFit (registered trade name) AK02N: Ajinomoto Co., Inc.) was dispensed into the laminin-coated plate in a state where a BMP4 solution was not added, iPS cells (4×10^4 cells/well) were seeded therein, the culture was continued while appropriately changing the medium, and from the 4th day of culture, 2 mL of an iPS cell culture medium (StemFit (registered trade name) AK02N: Ajinomoto Co., Inc.) to which 2 μL of a solution containing 50 μg/mL BMP4 (R&D Systems Inc.) solution had been added so that the BMP4 concentration was to be 50 ng/mL was used at the time of the medium exchange.
On the other hand, three-dimensional suspension culture was started at the same time using the same iPS cells used in the two-dimensional culture adhesion culture. 30 mL of an iPS cell medium (StemFit (registered trade name) AK02N: Ajinomoto Co., Inc.) was dispensed into a 30 mL volume spinner flask (ABLE Corporation), and then iPS cells (1.3×10^6 cells/mL) were seeded. In the same manner as in the two-dimensional adhesion culture, BMP4 was not added at the start of culture, but a medium to which a solution containing 50 μg/mL BMP4 (R&D Systems Inc.) was added at the same proportion as that used in the two-dimensional adhesion culture was used after the 4th day of culture. After the start of culture, the addition of BMP4 to the medium was continued until the 14th day of culture while the medium was exchanged every 3 to 4 days, and thereafter, a medium to which BMP4 had not been added was used. In three-dimensional suspension culture, stirring culture was continued in a spinner flask throughout the culture period. While continuing the two-dimensional adhesion culture and the three-dimensional suspension culture, the culture supernatant was appropriately sampled after the 7th day of culture, and the amount of hCG produced was quantified using the i-STAT cartridge Total β-hCG. Since there are differences in the number of cells that can be seeded at the start of culture and the adding amount of medium between the two-dimensional culture and the three-dimensional culture, there are differences in the hCG concentration and the total hCG production in the culture supernatant, and thus it is not possible to simply compare them. For this reason, the hCG quantification value on the 7th day of culture after the start of differentiation induction into the placenta was set to 100, and the ratio of the hCG quantification value on the subsequent culture measurement day to the hCG quantification value on the 7th day of culture was calculated. That is, in a case where the hCG quantification value on the 7th day is set to 100 in each of the two-dimensional and three-dimensional culture forms, the subsequent changes after the 7th day in the hCG production amount are shown in FIG. 2. It was confirmed that in the two-dimensional culture, the decrease in hCG production amount is particularly remarkable after the 15th day of culture, whereas in the three-dimensional culture, the hCG continues to be produced after the 15th day, and even on the 25th day of culture, 10 times or more of the hCG production is maintained as compared with the 7th day of culture.

B1: BMP4: bone morphogenetic protein BMP4 (R&D Systems Inc.), added to iPS cell medium at 50 ng/mL to induce differentiation (protein, UniProt P12644 293-408, looked up)
Bone morphogenetic protein 4: SPKHHSQRARKKNKNCRRHSLYVDFSDVGWNDWIVAPPGYQAFYCHGDCPFPLADHLNSTNHAIVQTLVNSVNSSIPKACCVPTELSAISMLYLDEYDKVVLKNYQEMVVEGCGCR
- hCG production (iPS cells [1]; day 7): + (a line equal to or more blue-colored than the control line was visually observed on the determination line, it was judged as positive (+))
- hCG production (iPS cells [1]; day 11): + (a line equal to or more blue-colored than the control line was visually observed on the determination line, it was judged as positive (+))
- hCG production (iPS cells [1]; day 15): + (a line equal to or more blue-colored than the control line was visually observed on the determination line, it was judged as positive (+))
- hCG production (iPS cells [1]; day 18): +/− (a line that was less blue-colored than the control line but was visible was visually observed on the determination line, it was determined to be (+/−))
- hCG production (iPS cells [1]; day 21): − (the line was not visually observed on the determination line, it was determined to be negative (−))
- hCG production (iPS cells [2]; BMP4 50 ng/mL from day 4, day 7): 6.6 IU
- hCG* production (hCG production on each of culture days/hCG production amount on 7th day) × 100 (iPS cells [2]; day 7): 100 AU
- hCG production (iPS cells [2]; day 11): 8.0 IU
- hCG* production (relative to 7th day × 100) (iPS cells [2]; day 11): 120 AU
- hCG production (iPS cells [2]; day 15): 5.0 IU
- hCG* production (relative to 7th day × 100) (iPS cells [2]; day 15): 75 AU
- hCG production (iPS cells [2]; day 18): 4.1 IU
- hCG* production (relative to 7th day × 100) (iPS cells [2]; day 18): 62 AU
- hCG production (iPS cells [2]; day 22): 1.4 IU
- hCG* production (relative to 7th day × 100) (iPS cells [2]; day 22): 20 AU
- hCG production (iPS cells [2]; day 25): 1.6 IU
- hCG* production (relative to 7th day × 100) (iPS cells [2]; day 25): 25 AU
